The values below come from patent US9469685 (UNIVERSITY OF CHICAGO, dated 2016).

This assay addresses HA of the 1918 pandemic strain, A/Brevig Mission/1/1918 (H1N1) (influenza A virus A/Brevig …, UniProt Q9WFX3 18-529). As to the kind of experiment: ELISA (FIG. 3B, FIG. 8A). In general terms: In an ELISA, binding on a coated surface is turned into a signal by an enzyme label.

Sequence of HA of the 1918 pandemic strain, A/Brevig Mission/1/1918 (H1N1) (Q9WFX3 18-529 limits assumed): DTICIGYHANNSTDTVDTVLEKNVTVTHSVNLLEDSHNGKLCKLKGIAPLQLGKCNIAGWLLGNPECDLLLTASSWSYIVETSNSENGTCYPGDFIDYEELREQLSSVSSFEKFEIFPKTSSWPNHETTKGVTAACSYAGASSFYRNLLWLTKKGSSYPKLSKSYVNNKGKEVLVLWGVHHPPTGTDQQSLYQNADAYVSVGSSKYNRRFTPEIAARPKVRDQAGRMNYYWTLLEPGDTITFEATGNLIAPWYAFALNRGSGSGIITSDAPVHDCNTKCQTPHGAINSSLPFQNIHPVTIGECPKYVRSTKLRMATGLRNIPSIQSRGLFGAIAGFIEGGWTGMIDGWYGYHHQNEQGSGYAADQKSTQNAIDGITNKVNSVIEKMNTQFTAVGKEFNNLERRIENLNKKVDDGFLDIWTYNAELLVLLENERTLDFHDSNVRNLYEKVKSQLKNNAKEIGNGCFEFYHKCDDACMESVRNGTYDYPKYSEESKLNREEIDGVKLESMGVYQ

B1: 70-5B03 (antibody, V domains shown)
VH: QVQLVQSGAEVKKPGSSVKVSCKASGGTFRNFAVSWVRQAPGQGPEWMGGIIAIFGTAKYAQKFQGRVTISADESTRIVQMELSSLRSDDTAIYYCASSSGSYYGDYFDYWGQGTLVTVSS
VL: EIVMTQSPATLSVSPGERATLSCRASQSVSSNLAWYQQTPGQAPRLLIYAASSRATGIPARFSGSGSGTEFTLSISSLQPEDFAVYYCQQYNNWPRTFGQGTKVEIK
As to B1, the binding result is “binds”.
